This is an account of results in patent publication US20240190920A1 (SHENZHEN RESEARCH INSTITUTE OF THE HONG KONG POLYTECHNIC …, published 2024).

Usually Kd stands for the concentration at which binding is half-saturated. A low value points to a tighter complex.

To fix the notation:
B1: i7-01s-37 (Ac-[Tat]-RLIQ(R8)KEDVEK(S5)RKR-NH2) (peptide)
peptide: Ac-YGRKKRRQRRRRLIQ[R8]KEDVEK[S5]RKR-NH2
modifications: staple 16-23
SMILES: CC[C@H](C)[C@H](NC(=O)[C@H](CC(C)C)NC(=O)[C@H](CCCNC(=N)N)NC(=O)[C@H](CCCNC(=N)N)NC(=O)[C@H](CCCNC(=N)N)NC(=O)[C@H](CCCNC(=N)N)NC(=O)[C@H](CCC(N)=O)NC(=O)[C@H](CCCNC(=N)N)NC(=O)[C@H](CCCNC(=N)N)NC(=O)[C@H](CCCCN)NC(=O)[C@H](CCCCN)NC(=O)[C@H](CCCNC(=N)N)NC(=O)CNC(=O)[C@H](Cc1ccc(O)cc1)NC(C)=O)C(=O)N[C@@H](CCC(N)=O)C(=O)N[C@]1(C)CCCCCCC=CCCC[C@@](C)(C(=O)N[C@@H](CCCNC(=N)N)C(=O)N[C@@H](CCCCN)C(=O)N[C@@H](CCCNC(=N)N)C(N)=O)NC(=O)[C@H](CCCCN)NC(=O)[C@H](CCC(=O)O)NC(=O)[C@H](C(C)C)NC(=O)[C@H](CC(=O)O)NC(=O)[C@H](CCC(=O)O)NC(=O)[C@H](CCCCN)NC1=O
B2: i7-01s-70 (Ac-[Tat]-RLIQ(R8)KGDVEL(S5)RKR-NH2) (peptide)
peptide: Ac-YGRKKRRQRRRRLIQ[R8]KGDVEL[S5]RKR-NH2
modifications: staple 16-23
SMILES: CC[C@H](C)[C@H](NC(=O)[C@H](CC(C)C)NC(=O)[C@H](CCCNC(=N)N)NC(=O)[C@H](CCCNC(=N)N)NC(=O)[C@H](CCCNC(=N)N)NC(=O)[C@H](CCCNC(=N)N)NC(=O)[C@H](CCC(N)=O)NC(=O)[C@H](CCCNC(=N)N)NC(=O)[C@H](CCCNC(=N)N)NC(=O)[C@H](CCCCN)NC(=O)[C@H](CCCCN)NC(=O)[C@H](CCCNC(=N)N)NC(=O)CNC(=O)[C@H](Cc1ccc(O)cc1)NC(C)=O)C(=O)N[C@@H](CCC(N)=O)C(=O)N[C@]1(C)CCCCCCC=CCCC[C@@](C)(C(=O)N[C@@H](CCCNC(=N)N)C(=O)N[C@@H](CCCCN)C(=O)N[C@@H](CCCNC(=N)N)C(N)=O)NC(=O)[C@H](CC(C)C)NC(=O)[C@H](CCC(=O)O)NC(=O)[C@H](C(C)C)NC(=O)[C@H](CC(=O)O)NC(=O)CNC(=O)[C@H](CCCCN)NC1=O
B3: i7-01s-64 (Ac-[Tat]-RLII(R8)QEDVEK(S5)RKR-NH2) (peptide)
peptide: Ac-YGRKKRRQRRRRLII[R8]QEDVEK[S5]RKR-NH2
modifications: staple 16-23
SMILES: CC[C@H](C)[C@H](NC(=O)[C@H](CC(C)C)NC(=O)[C@H](CCCNC(=N)N)NC(=O)[C@H](CCCNC(=N)N)NC(=O)[C@H](CCCNC(=N)N)NC(=O)[C@H](CCCNC(=N)N)NC(=O)[C@H](CCC(N)=O)NC(=O)[C@H](CCCNC(=N)N)NC(=O)[C@H](CCCNC(=N)N)NC(=O)[C@H](CCCCN)NC(=O)[C@H](CCCCN)NC(=O)[C@H](CCCNC(=N)N)NC(=O)CNC(=O)[C@H](Cc1ccc(O)cc1)NC(C)=O)C(=O)N[C@H](C(=O)N[C@]1(C)CCCCCCC=CCCC[C@@](C)(C(=O)N[C@@H](CCCNC(=N)N)C(=O)N[C@@H](CCCCN)C(=O)N[C@@H](CCCNC(=N)N)C(N)=O)NC(=O)[C@H](CCCCN)NC(=O)[C@H](CCC(=O)O)NC(=O)[C@H](C(C)C)NC(=O)[C@H](CC(=O)O)NC(=O)[C@H](CCC(=O)O)NC(=O)[C@H](CCC(N)=O)NC1=O)[C@@H](C)CC
B4: i7-01s-58 (Ac-[Tat]-RLIE(R8)REIVEK(S5)RKR-NH2) (peptide)
peptide: Ac-YGRKKRRQRRRRLIE[R8]REIVEK[S5]RKR-NH2
modifications: staple 16-23
SMILES: CC[C@H](C)[C@H](NC(=O)[C@H](CC(C)C)NC(=O)[C@H](CCCNC(=N)N)NC(=O)[C@H](CCCNC(=N)N)NC(=O)[C@H](CCCNC(=N)N)NC(=O)[C@H](CCCNC(=N)N)NC(=O)[C@H](CCC(N)=O)NC(=O)[C@H](CCCNC(=N)N)NC(=O)[C@H](CCCNC(=N)N)NC(=O)[C@H](CCCCN)NC(=O)[C@H](CCCCN)NC(=O)[C@H](CCCNC(=N)N)NC(=O)CNC(=O)[C@H](Cc1ccc(O)cc1)NC(C)=O)C(=O)N[C@@H](CCC(=O)O)C(=O)N[C@]1(C)CCCCCCC=CCCC[C@@](C)(C(=O)N[C@@H](CCCNC(=N)N)C(=O)N[C@@H](CCCCN)C(=O)N[C@@H](CCCNC(=N)N)C(N)=O)NC(=O)[C@H](CCCCN)NC(=O)[C@H](CCC(=O)O)NC(=O)[C@H](C(C)C)NC(=O)[C@H]([C@@H](C)CC)NC(=O)[C@H](CCC(=O)O)NC(=O)[C@H](CCCNC(=N)N)NC1=O
B5: i7-01s-75 (Ac-[Tat]-RLIY(R8)MEDVEK(S5)RKR-NH2) (peptide)
peptide: Ac-YGRKKRRQRRRRLIY[R8]MEDVEK[S5]RKR-NH2
modifications: staple 16-23
SMILES: CC[C@H](C)[C@H](NC(=O)[C@H](CC(C)C)NC(=O)[C@H](CCCNC(=N)N)NC(=O)[C@H](CCCNC(=N)N)NC(=O)[C@H](CCCNC(=N)N)NC(=O)[C@H](CCCNC(=N)N)NC(=O)[C@H](CCC(N)=O)NC(=O)[C@H](CCCNC(=N)N)NC(=O)[C@H](CCCNC(=N)N)NC(=O)[C@H](CCCCN)NC(=O)[C@H](CCCCN)NC(=O)[C@H](CCCNC(=N)N)NC(=O)CNC(=O)[C@H](Cc1ccc(O)cc1)NC(C)=O)C(=O)N[C@@H](Cc1ccc(O)cc1)C(=O)N[C@]1(C)CCCCCCC=CCCC[C@@](C)(C(=O)N[C@@H](CCCNC(=N)N)C(=O)N[C@@H](CCCCN)C(=O)N[C@@H](CCCNC(=N)N)C(N)=O)NC(=O)[C@H](CCCCN)NC(=O)[C@H](CCC(=O)O)NC(=O)[C@H](C(C)C)NC(=O)[C@H](CC(=O)O)NC(=O)[C@H](CCC(=O)O)NC(=O)[C@H](CCSC)NC1=O
B6: i7-01s-45 (Ac-[Tat]-RLKQ(R8)LEDVEK(S5)RKR-NH2) (peptide)
peptide: Ac-YGRKKRRQRRRRLKQ[R8]LEDVEK[S5]RKR-NH2
modifications: staple 16-23
SMILES: CC(=O)N[C@@H](Cc1ccc(O)cc1)C(=O)NCC(=O)N[C@@H](CCCNC(=N)N)C(=O)N[C@@H](CCCCN)C(=O)N[C@@H](CCCCN)C(=O)N[C@@H](CCCNC(=N)N)C(=O)N[C@@H](CCCNC(=N)N)C(=O)N[C@@H](CCC(N)=O)C(=O)N[C@@H](CCCNC(=N)N)C(=O)N[C@@H](CCCNC(=N)N)C(=O)N[C@@H](CCCNC(=N)N)C(=O)N[C@@H](CCCNC(=N)N)C(=O)N[C@@H](CC(C)C)C(=O)N[C@@H](CCCCN)C(=O)N[C@@H](CCC(N)=O)C(=O)N[C@]1(C)CCCCCCC=CCCC[C@@](C)(C(=O)N[C@@H](CCCNC(=N)N)C(=O)N[C@@H](CCCCN)C(=O)N[C@@H](CCCNC(=N)N)C(N)=O)NC(=O)[C@H](CCCCN)NC(=O)[C@H](CCC(=O)O)NC(=O)[C@H](C(C)C)NC(=O)[C@H](CC(=O)O)NC(=O)[C@H](CCC(=O)O)NC(=O)[C@H](CC(C)C)NC1=O

Bridge positions count the residues as written; N and C are the ends. Square brackets hold non-standard residues; d marks the D form. R8 = C=CCCCCCC[C@@](C)(N)C(=O)O; S5 = C=CCCC[C@](C)(N)C(=O)O

T1 sequence (Q14457 176-268 limits assumed): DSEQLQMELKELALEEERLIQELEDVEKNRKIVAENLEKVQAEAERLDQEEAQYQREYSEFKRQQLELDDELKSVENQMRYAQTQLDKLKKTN

This assay addresses T1, Beclin 1 coiled coil domain (human Beclin 1, residues 176-268) (human, UniProt Q14457 176-268).
T1 construct: range 176-268; also called Beclin 1 coiled coil domain protein
The assay is described as follows: ITC, peptide titrated into Beclin 1 coiled coil domain, 25 C, one-site model. (In general: In ITC the heat of successive injections is recorded.)
In the case of B1, the dissociation constant (Kd) was 2410 nM.

Turning to B2, the Kd was 2140 nM. The Kd values of the last two molecules are within 1.5-fold of each other.

On to B3, for which the Kd was found to be 356000 nM.

As to B4, binding was characterised by a dissociation constant (Kd) of 610 nM. Against the preceding molecule, the Kd is about 580-fold lower.

B5 yielded a dissociation constant (Kd) of 1290 nM.

For the molecule B6, the equilibrium dissociation constant (Kd) amounted to 1410 nM. This Kd and that of the molecule before are within 1.5-fold of each other.
